T1: human NPY2R Gi-protein coupled receptor (human, UniProt P49146 1-381)
T1 sequence (looked up): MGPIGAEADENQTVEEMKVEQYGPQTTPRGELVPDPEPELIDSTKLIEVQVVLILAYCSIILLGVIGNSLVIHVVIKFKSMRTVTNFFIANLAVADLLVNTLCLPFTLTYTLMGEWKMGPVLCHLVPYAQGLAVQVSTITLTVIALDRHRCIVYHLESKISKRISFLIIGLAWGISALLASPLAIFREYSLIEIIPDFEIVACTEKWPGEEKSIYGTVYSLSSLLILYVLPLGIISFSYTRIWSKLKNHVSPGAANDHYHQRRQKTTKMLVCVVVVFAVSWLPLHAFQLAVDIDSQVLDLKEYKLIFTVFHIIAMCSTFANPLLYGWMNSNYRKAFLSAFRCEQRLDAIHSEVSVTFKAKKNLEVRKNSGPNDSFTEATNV

B1: Cyclic PYY Analog SEQ ID NO:70 (peptide)
peptide: GISPEAPGEKASPEELNRYYASLRHYLNEVTRQRY-NH2
modifications: lactam N-29; also: psi-(R35,Y36) reduced amide bond
B2: Cyclic PYY Analog SEQ ID NO:21 (peptide)
peptide: {m‑COPhCH2}-IAPEAPGEDASPEELNRYYASLRAYLNK([γGlu-Palmitoyl])[hCys]TRQRY-NH2
modifications: bridge N-29; not fully specified (bridges)
B3: Cyclic PYY Analog SEQ ID NO:22 (peptide)
peptide: {m‑COPhCH2}-IEPEAPGEDASPEELNRYYASLRAYLNK([γGlu-Palmitoyl])[hCys]TRQRY-NH2
modifications: bridge N-29; not fully specified (bridges)
B4: Cyclic PYY Analog SEQ ID NO:72 (peptide)
peptide: GISPEAPGEK([AEEA-AEEA-γGlu-C18 diacid])ASPEELNRYYASLRHYLNEVTRQRY-NH2
modifications: lactam N-29; also: psi-(R35,Y36) reduced amide bond

The record followed here is patent US20180127476A1 (Janssen / Centocor, published 2018).

Numbered stars: 1 amine (or outer) side, 2 acyl side, 3 side chain; on linkers, the order of the positions; unused ones are H or OH. Bridge positions count the residues as written; N and C are the ends. Square brackets hold non-standard residues; d marks the D form. Side chains are listed from the residue outwards. * marks the point of attachment. m‑COPhCH2 = meta-toluoyl group on the Ile3 alpha-amine, its methyl linked by thioether to hCys31, O=C(c1cccc(C[*:3])c1)[*:2]; C18 diacid = O=C(O)CCCCCCCCCCCCCCCCC(=O)*; γGlu = O=C(O)[C@H](CCC(=O)[*:2])N[*:1]; Palmitoyl = CCCCCCCCCCCCCCCC(=O)*; hCys = N[C@@H](CCS)C(=O)O; AEEA = NCCOCCOCC(=O)O

This experiment addresses T1, human NPY2R Gi-protein coupled receptor. Put plainly: cell-based or functional assay.
As to B1, the “Y2R EC50 (nM), inhibition of forskolin-induced cAMP (hY2 assay)” value (“Y2R EC50 (nM), inhibition” below) turned out to be 0.02 nM.

As to B2, the “Y2R EC50 (nM), inhibition” value amounted to 0.49 nM.

Regarding B3, the “Y2R EC50 (nM), inhibition” value stood at 4.4 nM.

Consider B4, for which the “Y2R EC50 (nM), inhibition” value stood at 1.75 nM.
